Data on two molecules can be found in patent US20200325214A1 (NUMAB THERAPEUTICS, published 2020).

For test [1], the target named is T1, rat serum albumin (rat, UniProt P02770 25-608).
T1 construct: Amine-coupled to the SPR chip; also called rat SA; rodent SA
As to the kind of experiment: SPR, SA coupled to the chip, scFv as analyte. Background: Surface plasmon resonance follows binding to a sensor surface in real time, without labels.
Description: (§1) Affinity of the humanized scFvs to serum albumin (SA) of the different species was determined by SPR measurements using a MASS-1 device (Sierra Sensors). SA was directly coupled to a high capacity amine sensor chip (Sierra Sensors) using amine coupling chemistry. […] The assay was run twice at different pH values: once in a 1×PBS-Tween buffer at pH 5.5 and another time in a 1×PBS-Tween buffer at pH 7.4.

For test [2], the target named is T2, mouse serum albumin (mouse, UniProt P07724 25-608).
T2 construct: Amine-coupled to the SPR chip; also called mouse SA; rodent SA
As to the kind of experiment: SPR, SA coupled to the chip, scFv as analyte.
Description: as §1

In test [3] the target is T3, human serum albumin (human, UniProt P02768 25-609).
T3 construct: Amine-coupled to the SPR chip; also called HSA; human SA
In words: SPR (MASS-1), SA amine-coupled, scFv analyte, pH 5.5.
Description: as §1

Test [4] concerns the target T4, cynomolgus serum albumin (cynomolgus, UniProt A2V9Z4 25-608).
T4 construct: Amine-coupled to the SPR chip; also called cynomolgus SA
The test is described as above.
Description: as §1

The target of test [5] is T3, human serum albumin. As to the kind of experiment: SPR (MASS-1), SA amine-coupled, scFv analyte, pH 7.4.
Description: as §1
Test [6] deals with T4, cynomolgus serum albumin. Described as above.
Description: as §1
Test [7] deals with T5, marmoset (purified) serum albumin (marmoset).
T5 construct: Amine-coupled to the SPR chip; also called marmoset SA
As to the kind of experiment: SPR (MASS-1), SA amine-coupled, scFv analyte, pH 5.5.
Description: as §1

The target in test [8] is T3, human serum albumin. As to the kind of experiment: SPR; lower end tied to human SA at pH 5.5 by the KD values of Table 3.
Description: as §1
Test [9] deals with T4, cynomolgus serum albumin. In words: SPR; upper end tied to cynomolgus SA at pH 5.5 by the KD values of Table 3.
Description: as §1
Test [10] deals with T1, rat serum albumin. In words: SPR (MASS-1), SA amine-coupled, scFv analyte, pH 5.5.
Description: as §1
Test [11] has as its target T2, mouse serum albumin. The test is described as above.
Description: as §1
In test [12] the target is T1, rat serum albumin. In words: SPR (MASS-1), SA amine-coupled, scFv analyte, pH 7.4.
Description: as §1
Test [13] addresses T2, mouse serum albumin. The description is as above.
Description: as §1
For test [14], the target named is T3, human serum albumin. In words: SPR; species not given, human SA taken from Table 3.

B1: 19-01-H04-sc02 (scFv, V domains shown)
VH: EVQLVESGGGLVQPGGSLRLSCAASGFSLSSNAMGWVRQAPGKGLEYIGIISVGGFTYYASWAKGRFTISRDNSKNTVYLQMNSLRAEDTATYFCARDRHGGDSSGAFYLWGQGTLVTVSS
VL: DIQMTQSPSSLSASVGDRVTITCQSSESVYSNNQLSWYQQKPGQPPKLLIYDASDLASGVPSRFSGSGSGTDFTLTISSLQPEDFATYYCAGGFSSSSDTAFGGGTKLTVLG
notes: also called clone 19-01-H04 STR graft; humanized scFv
Consider B1, for which the binding result with rat serum albumin [1] and with mouse serum albumin [2] was “no binding” throughout. For the same molecule, the Kd turned out to be 0.684 nM with human serum albumin [3]; 0.387 nM in the test with cynomolgus serum albumin [4]; 1.07 nM with human serum albumin [5]; 0.711 nM in the test with cynomolgus serum albumin [6]; 0.674 nM in test [7]. The koff came out at 0.000308 s⁻¹ in the test with human serum albumin [3]; 0.000231 s⁻¹ in the test with cynomolgus serum albumin [4]; 0.000411 s⁻¹ in the test with human serum albumin [5]; 0.000302 s⁻¹ in the test with cynomolgus serum albumin [6]; 0.0026 s⁻¹ in test [7]. The kon in the test with human serum albumin [3] came to 450000 M⁻¹ s⁻¹; with cynomolgus serum albumin [4] it was 598000 M⁻¹ s⁻¹; with human serum albumin [5], 384000 M⁻¹ s⁻¹; in the test with cynomolgus serum albumin [6] it was 424000 M⁻¹ s⁻¹; in [7] it was 3.86e+06 M⁻¹ s⁻¹. Further, the “fold improvement of affinity of the STR graft over the CDR graft 19-01-H04-sc01” value with human serum albumin [8] and in the test with cynomolgus serum albumin [9] was 20 to 300 fold throughout.

B2: 23-13-A01-sc02 (scFv, V domains shown)
VH: EVQLVESGGGLVQPGGSLRLSCAASGFSFSSSYWICWVRQAPGKGLEWVGCVFTGDGTTYYASWAKGRFTISRDNSKNTVYLQMNSLRAEDTATYFCARPVSVYYYGMDLWGQGTLVTVSS
VL: DVVMTQSPSSLSASVGDRVTITCQASQIISSRSAWYQQKPGQPPKLLIYQASKLASGVPSRFSGSGSGTDFTLTISSLQPEDFATYYCQCTYIDSNFGAFGGGTKLTVLG
notes: also called clone 23-13-A01 STR graft; humanized scFv
With B2, the Kd with human serum albumin [3] turned out to be 0.373 nM; with cynomolgus serum albumin [4] it was 0.75 nM; in the test with human serum albumin [5], 0.6 nM; with cynomolgus serum albumin [6], 1.3 nM; with rat serum albumin [10] it was 18.7 nM; in [7] it was 3.77 nM. The Kd in the test with mouse serum albumin [11] stood at 4.86 nM; with rat serum albumin [12] it was 231 nM; with mouse serum albumin [13], 32.2 nM. Besides, the koff in the test with human serum albumin [3] was 0.000115 s⁻¹; in the test with cynomolgus serum albumin [4], 0.000253 s⁻¹; with human serum albumin [5] it was 0.000194 s⁻¹; in the test with cynomolgus serum albumin [6], 0.000433 s⁻¹; with rat serum albumin [10], 0.00437 s⁻¹; in test [7] it was 0.00128 s⁻¹. In addition, the results for the koff in the test with mouse serum albumin [11], with rat serum albumin [12] and with mouse serum albumin [13] were 0.000933 s⁻¹, 0.0245 s⁻¹ and 0.00469 s⁻¹, respectively. Further, the kon with human serum albumin [3] turned out to be 307000 M⁻¹ s⁻¹; in the test with cynomolgus serum albumin [4], 338000 M⁻¹ s⁻¹; with human serum albumin [5], 323000 M⁻¹ s⁻¹; in the test with cynomolgus serum albumin [6], 334000 M⁻¹ s⁻¹; with rat serum albumin [10] it was 234000 M⁻¹ s⁻¹; in test [7] it was 338000 M⁻¹ s⁻¹. The kon came out at 192000 M⁻¹ s⁻¹ with mouse serum albumin [11], 106000 M⁻¹ s⁻¹ with rat serum albumin [12] and 146000 M⁻¹ s⁻¹ in the test with mouse serum albumin [13]. The “fold improvement of affinity of the STR graft over the CDR graft 23-13-A01-sc01” value with human serum albumin [14] is about 3 fold.

For orientation: Kd means the equilibrium constant for the complex coming apart. The low end stands for tighter binding, the high end for weaker binding. Broadly, the koff is the first-order rate constant of dissociation. Higher therefore signals fast dissociation. A word on the kon: it is the rate constant with which the complex forms. The low end stands for slower complex formation, the high end for faster complex formation.
